Data on 2 molecules can be found in publication PMC3359377, “A Novel Tool for Studying Auxin-Metabolism: The Inhibition of Grapevine Indole-3-Acetic Acid-Amido Synthetases by a Reaction Intermediate Analogue” (PLoS ONE, 2012).

One series concerns the target T1, GH3-1 (Vitis vinifera, UniProt F6H697).
T1 construct: gene GH3.1_2
T1 sequence (F6H697 1-598): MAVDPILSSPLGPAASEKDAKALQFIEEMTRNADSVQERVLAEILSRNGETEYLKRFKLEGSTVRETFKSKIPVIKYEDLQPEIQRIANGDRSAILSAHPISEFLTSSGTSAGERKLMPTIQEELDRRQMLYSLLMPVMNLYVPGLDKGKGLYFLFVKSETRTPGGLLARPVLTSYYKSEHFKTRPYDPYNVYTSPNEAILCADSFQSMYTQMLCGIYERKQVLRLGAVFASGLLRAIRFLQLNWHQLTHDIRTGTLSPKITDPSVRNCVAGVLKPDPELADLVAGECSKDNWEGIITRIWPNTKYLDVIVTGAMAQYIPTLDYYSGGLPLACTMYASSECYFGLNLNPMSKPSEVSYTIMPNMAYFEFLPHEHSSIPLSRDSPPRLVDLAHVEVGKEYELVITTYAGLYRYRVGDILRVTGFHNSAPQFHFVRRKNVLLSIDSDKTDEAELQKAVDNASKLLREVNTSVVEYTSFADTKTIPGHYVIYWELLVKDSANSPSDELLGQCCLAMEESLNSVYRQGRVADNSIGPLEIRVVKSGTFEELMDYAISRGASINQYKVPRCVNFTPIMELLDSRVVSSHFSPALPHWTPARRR
Briefly: IAA-Asp formation by LC-ESI-MS/MS with recombinant enzyme; Dixon plots. It is filed as biochemical.

Substrate in series [1]: Nc1ncnc2c1ncn2[C@@H]1O[C@H](COP(=O)(O)OP(=O)(O)OP(=O)(O)O)[C@@H](O)[C@H]1O
Put plainly: Michaelis-Menten kinetics (Km), LC-ESI-MS/MS of IAA-Asp. It is filed as biochemical, Vitis vinifera. The settings on record: Mg2+ catalytic site.

Substrate in series [2]: O=C(O)Cc1c[nH]c2ccccc12
The series is described as above. The note with it: MgATP catalytic site. The series is classed as biochemical, Vitis vinifera.

For orientation: Ki means a dissociation constant, usually derived from enzyme kinetics or from competition with a known ligand. Consider `Nc1ncnc2c1ncn2[C@@H]1O[C@H](COP(=O)(O)OCCc2c[nH]c3ccccc23)[C@@H](O)[C@H]1O` [AIEP, adenosine-5′-[2-(1H-indol-3-yl)ethyl]phosphate], for which the Ki on GH3-1 was 200 nM.

B1: GH3-1 (Vitis vinifera) (protein)
chain: T1 sequence (F6H697 1-598)
In general, Km refers to the concentration of substrate that gives half-maximal velocity. As usually defined, the Vmax is the rate approached at saturating substrate. Usually kcat stands for the number of substrate molecules converted per active site and unit of time at saturation. In the case of B1, in series [1], the Km was determined as 13.2 ± 1.4 µM, the Vmax is 0.261 µmol/min/mg and the kcat is 0.3 s⁻¹. Moreover, in series [2], the Km came to 21.1 ± 1.4 µM, the Vmax worked out at 0.384 µmol/min/mg and the kcat came to 0.442 s⁻¹.
